Non-standard residues stand in square brackets, D forms with d. No end group written: not given here. Tyr(3-NO2) = N[C@@H](Cc1ccc(O)c([N+](=O)[O-])c1)C(=O)O; 2Abz = Nc1ccccc1C(=O)O
Key:
Format in all cases: biochemical
[1] = biological target: T1, TS5-5 (combined catalytic and disintegrin domain of ADAMTS-5) (Homo sapiens, UniProt Q9UNA0); experiment: Cleavage of FRET peptide substrates by TS5-5 in solution (activity/selectivity studies); details: substrate 20 μM, 37 °C
T1 construct: ADAMTS-5 (i.e. TS5-5, residues 264–555); FLAG; made in house; host or cells: HEK293 cells (previously transfected stocks)
T1 sequence (Q9UNA0 264-555): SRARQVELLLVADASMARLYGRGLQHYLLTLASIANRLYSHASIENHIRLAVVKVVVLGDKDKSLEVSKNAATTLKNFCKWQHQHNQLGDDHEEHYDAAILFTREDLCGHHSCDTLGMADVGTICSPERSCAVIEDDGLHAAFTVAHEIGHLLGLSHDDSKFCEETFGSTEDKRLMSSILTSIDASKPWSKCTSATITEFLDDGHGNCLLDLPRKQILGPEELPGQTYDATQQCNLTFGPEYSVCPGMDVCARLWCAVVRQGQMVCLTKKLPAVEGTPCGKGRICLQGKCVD
Procedure: (§1) All proteinase assays were performed at 37 °C in a SpectraMax M5 spectrophotometer (Molecular Devices, San Jose, USA) using a 96-well black microplate (Greiner bio-one, Stonehouse, UK) unless otherwise stated. […] N-TIMP-3 was purified as described previously[30] and CT-1746 was a gift from Dr. Yoshifumi Itoh (Kennedy Institute of Rheumatology, University of Oxford). All analyses were carried out using Prism 9 software (GraphPad, La Jolla, CA, USA).
To test whether active TS5-5 had been purified, three concentrations of proteinase were assayed. A solution of Abz-TESE↓SRGAIY-Dpa-KK-NH2 (22.22 μM) in freshly prepared TNC buffer with 0.02% (v/v) Brij-35 (180 μL) was added to a 96-well black microplate in triplicate for each proteinase concentration. A substrate-only background control was also added in triplicate (180 μL). The resultant solutions were incubated at 37 °C (30 min). TS5-5 proteinase in TNC buffer with 0.02% (v/v) Brij-35 (20 μL) was added to wells to give final proteinase concentrations of 80 nM, 40 nM and 20 nM. TNC buffer with 0.02% (v/v) Brij-35 (20 μL) was also added to background control wells. The change in RFU was measured at 37 °C for 1 h, with readings every 20 s. Following subtraction of background fluorescence intensity, linear regression analysis of the linear part of each curve was used to determine the cleavage rate, which was expressed as the mean ± SEM in RFU s^–1. For cases where a single concentration of TS5-5 or TS4-4 was assayed, the same procedure was used but with 0.005% (v/v) Brij-35 and using the 5-FAM-AE↓LQGRPISIAK-TAMRA substrate for TS4-4 (0.56 μM). To convert cleavage rates to nM s^–1 nM^–1, the rate in RFU s^–1 was divided by the final concentration of proteinase (nM), then divided by the gradient of the calibration curve for Abz or 5-FAM (expressed in RFU nM^–1).
(§2) Selectivity studies are described for Abz-TESE↓SRGAIY-Dpa-KK-NH2, the library parent peptide 3, and hit peptides 18–26. A solution of Abz-TESE↓SRGAIY-Dpa-KK-NH2 (22.22 μM) in freshly prepared TNC buffer with 0.005% (v/v) Brij-35 (90 μL) was added to a 96-well clear bottom microplate (Greiner bio-one, Stonehouse, UK) in triplicate. A substrate-only background control was also added in triplicate (90 μL). The resultant solutions were incubated at 37 °C (30 min). An ADAMTS or MMP proteinase was added to substrate wells (10 μL) to give a final proteinase concentration of either 50–90 nM (TS4-4), 25–200 nM (TS5-5), 5–10 nM (MMP-2ΔC), 30 nM (MMP-9ΔC), 92 nM (MMP-1), or 3 μM (MMP-3). TNC buffer with 0.005% (v/v) Brij-35 was added to substrate-only control wells (10 μL). The relative fluorescence intensity was measured at 37 °C for 1 h with readings every 20 s. Activity was read from underneath the microplate, which was covered with a low evaporation lid. […] For each ADAMTS and MMP proteinase, the assay was performed 2–4 times. […] Final rates were expressed as a percentage of substrate cleavage by TS5-5 (mean ± SEM) or in μM s^–1 μM^–1 of proteinase.

[2] = biological target: T2, MMP-2ΔC (catalytic domain of MMP-2) (Homo sapiens, UniProt P08253); experiment: Selectivity studies: cleavage of FRET peptide substrates by MMP-2ΔC; details: substrate 20 μM, MMP-2ΔC 5–10 nM, TNC buffer with 0.005% (v/v) Brij-35, 37 °C; mean of 3–4 independent experiments in triplicate
T2 construct: the catalytic domain of MMP-2, i.e., MMP-2ΔC; made in house; host or cells: HEK293 cells (previously transfected stocks)
Procedure: as §1, §2

MMP-1 (full length) = experiment: Selectivity studies: cleavage of the current substrate by MMP-1; details: substrate 20 μM, MMP-1 92 nM, up to 72 h, 37 °C; single triplicate experiment
Procedure: as §1
Selectivity studies are described for Abz-TESE↓SRGAIY-Dpa-KK-NH2, the library parent peptide 3, and hit peptides 18–26. A solution of Abz-TESE↓SRGAIY-Dpa-KK-NH2 (22.22 μM) in freshly prepared TNC buffer with 0.005% (v/v) Brij-35 (90 μL) was added to a 96-well clear bottom microplate (Greiner bio-one, Stonehouse, UK) in triplicate. A substrate-only background control was also added in triplicate (90 μL). The resultant solutions were incubated at 37 °C (30 min). […] The relative fluorescence intensity was measured at 37 °C for 1 h with readings every 20 s. Activity was read from underneath the microplate, which was covered with a low evaporation lid. […] Final rates were expressed as a percentage of substrate cleavage by TS5-5 (mean ± SEM) or in μM s^–1 μM^–1 of proteinase.

T2 sequence (P08253 110-465 limits assumed, stated change not applied): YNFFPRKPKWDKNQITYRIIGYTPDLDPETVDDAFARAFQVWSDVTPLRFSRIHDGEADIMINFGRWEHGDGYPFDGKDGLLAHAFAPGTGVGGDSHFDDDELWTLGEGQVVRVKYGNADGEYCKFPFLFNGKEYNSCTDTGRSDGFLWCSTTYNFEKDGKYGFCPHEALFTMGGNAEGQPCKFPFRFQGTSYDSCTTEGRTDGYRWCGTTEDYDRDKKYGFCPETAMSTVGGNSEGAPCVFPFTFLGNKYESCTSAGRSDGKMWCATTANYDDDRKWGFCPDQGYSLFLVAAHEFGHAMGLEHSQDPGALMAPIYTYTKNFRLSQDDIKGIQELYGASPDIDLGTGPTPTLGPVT

| Substance | improvement in cleavage (overall cleavage rate) by TS5-5 compared to the current substrate [1] [fold] | rate of cleavage by MMP-2ΔC [2] [μM s^–1 μM^–1] | cleavage by MMP-1 (MMP-1 (full length)) |
| --- | --- | --- | --- |
| KY(NO2)TESESRGK(Abz)IYYKKG (K[Tyr(3-NO2)]TESESRGK(Abz)IYYKKG) [Compound 3] | ~4 |  |  |
| KY(NO2)SENESRGK(Abz)IYYKKG (K[Tyr(3-NO2)]SENESRGK(2Abz)IYYKKG) [Compound 26] | ~3 |  |  |
| Abz-TESE↓SRGAIY-Dpa-KK-NH2 [current, ortho-aminobenzoyl(Abz)-TESE↓SRGAIY-N-3-[2,4-dinitrophenyl]-L-2,3-diaminopropionyl(Dpa)-KK-NH2, reference compound] |  | 0.56 | no cleavage was observed |
